Results as given in the supplement of paper PMC10567573.

B1: SCNN1D (parent)
chain: IRVMVHGRNHTPFLGHHSFSVRPG
B2: C2CD2L (parent)
chain: LTLKVLRSSSCGDTELLGQATLPV

Variants of: B1
Test: protein stability index of a GFP-peptide fusion (GPS, HEK-293T) (PSI 1-6); higher = more stable
Details: c terminus: a fixed tail appended
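Also: lentivirally expressed fusions sorted by FACS into six bins by GFP to DsRed ratio, PSI derived from sequencing read proportions per bin multiplied by bin number.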

| Variant | protein stability index |
| --- | --- |
| PRVMVHGRNHTPFLGHHSFSVRPG | 2.61 |
| FRVMVHGRNHTPFLGHHSFSVRPG | 1.82 |
| KRVMVHGRNHTPFLGHHSFSVRPG | 2.21 |
| RRVMVHGRNHTPFLGHHSFSVRPG | 3.65 |
| WRVMVHGRNHTPFLGHHSFSVRPG | 2.71 |
| SRVMVHGRNHTPFLGHHSFSVRPG | 3.19 |
| MRVMVHGRNHTPFLGHHSFSVRPG | 1.89 |
| TRVMVHGRNHTPFLGHHSFSVRPG | 2.62 |
| NRVMVHGRNHTPFLGHHSFSVRPG | 2.85 |
| DRVMVHGRNHTPFLGHHSFSVRPG | 2.63 |
| HRVMVHGRNHTPFLGHHSFSVRPG | 2.74 |
| LRVMVHGRNHTPFLGHHSFSVRPG | 1.31 |
| ERVMVHGRNHTPFLGHHSFSVRPG | 2.04 |
| ARVMVHGRNHTPFLGHHSFSVRPG | 2.28 |
| QRVMVHGRNHTPFLGHHSFSVRPG | 3 |
| IRVMVHGRNHQPFLGHHSFSVRPG | 2.44 |
| IRVMVHGRNHFPFLGHHSFSVRPG | 2.59 |
| IRVMVHGRNHYPFLGHHSFSVRPG | 3.8 |
| IRVMVHGRVHTPFLGHHSFSVRPG | 3.7 |
| IRVMVHGRYHTPFLGHHSFSVRPG | 4.19 |
| IRVMVHGRCHTPFLGHHSFSVRPG | 1.89 |
| IRVMVHGRGHTPFLGHHSFSVRPG | 2.67 |
| IRVMVHGREHTPFLGHHSFSVRPG | 3.01 |

| Variant | protein stability index |
| --- | --- |
| IRVMVHGRMHTPFLGHHSFSVRPG | 5.71 |
| IRVMVHGENHTPFLGHHSFSVRPG | 2.47 |
| IRVMVHGHNHTPFLGHHSFSVRPG | 3.06 |
| IRVMVHGANHTPFLGHHSFSVRPG | 2.25 |
| IRVMVHGRNHTPNLGHHSFSVRPG | 1.77 |
| IRVMVHGRNHTPYLGHHSFSVRPG | 2.77 |
| IRVMVHGRNHTPHLGHHSFSVRPG | 1.36 |
| IRVMVHGRNHTPRLGHHSFSVRPG | 1 |
| IRVMVHGRNHTPALGHHSFSVRPG | 4.08 |
| IRVMVHGRNHTPLLGHHSFSVRPG | 1.19 |
| IRVMVHGRNHTPGLGHHSFSVRPG | 1.96 |
| IRVMVHGRNHTPFLQHHSFSVRPG | 1.54 |
| IRVMVHGRNHTPFLEHHSFSVRPG | 4.06 |
| IRVMVHGRNHTPFLTHHSFSVRPG | 1.88 |
| IRPMVHGRNHTPFLGHHSFSVRPG | 2.75 |
| IRKMVHGRNHTPFLGHHSFSVRPG | 3.58 |
| IRFMVHGRNHTPFLGHHSFSVRPG | 1.93 |
| IRTMVHGRNHTPFLGHHSFSVRPG | 2.2 |
| IRGMVHGRNHTPFLGHHSFSVRPG | 2.33 |
| IRRMVHGRNHTPFLGHHSFSVRPG | 2.13 |
| IRYMVHGRNHTPFLGHHSFSVRPG | 2.43 |
| IRAMVHGRNHTPFLGHHSFSVRPG | 2.42 |
| IRSMVHGRNHTPFLGHHSFSVRPG | 2.13 |

| Variant | protein stability index |
| --- | --- |
| IRWMVHGRNHTPFLGHHSFSVRPG | 1.6 |
| IRQMVHGRNHTPFLGHHSFSVRPG | 1.91 |
| IRLMVHGRNHTPFLGHHSFSVRPG | 2.11 |
| IRHMVHGRNHTPFLGHHSFSVRPG | 2.07 |
| IRDMVHGRNHTPFLGHHSFSVRPG | 2.17 |
| IRNMVHGRNHTPFLGHHSFSVRPG | 1.85 |
| IRVMVEGRNHTPFLGHHSFSVRPG | 2.27 |
| IRVMVYGRNHTPFLGHHSFSVRPG | 2.35 |
| IRVMVPGRNHTPFLGHHSFSVRPG | 2.34 |
| IRVMVQGRNHTPFLGHHSFSVRPG | 3.67 |
| IRVMVAGRNHTPFLGHHSFSVRPG | 2.13 |
| IRVMVCGRNHTPFLGHHSFSVRPG | 2.51 |
| IRVMVKGRNHTPFLGHHSFSVRPG | 3.76 |
| IRVMVDGRNHTPFLGHHSFSVRPG | 2.53 |
| IRVMVFGRNHTPFLGHHSFSVRPG | 1.91 |
| IRVMVTGRNHTPFLGHHSFSVRPG | 2.35 |
| IRVMVHGRNLTPFLGHHSFSVRPG | 3.2 |
| IRVMVHGRNCTPFLGHHSFSVRPG | 2.19 |
| IRVMVHGRNETPFLGHHSFSVRPG | 1.94 |
| IRVMVHGRNVTPFLGHHSFSVRPG | 3.51 |
| IRVMVHGRNMTPFLGHHSFSVRPG | 2.15 |
| IRVMVHKRNHTPFLGHHSFSVRPG | 2.48 |
| IRVMVHCRNHTPFLGHHSFSVRPG | 1.7 |

| Variant | protein stability index |
| --- | --- |
| IRVMVHIRNHTPFLGHHSFSVRPG | 2.67 |
| IRVMVHRRNHTPFLGHHSFSVRPG | 2.12 |
| IRVMVHMRNHTPFLGHHSFSVRPG | 2.97 |
| IRVMVHTRNHTPFLGHHSFSVRPG | 1.92 |
| IRVMVHERNHTPFLGHHSFSVRPG | 2.05 |
| IRVMVHSRNHTPFLGHHSFSVRPG | 1.72 |
| IRVMNHGRNHTPFLGHHSFSVRPG | 1.66 |
| IRVMPHGRNHTPFLGHHSFSVRPG | 2.12 |
| IRVMAHGRNHTPFLGHHSFSVRPG | 2.48 |
| IRVMSHGRNHTPFLGHHSFSVRPG | 1.21 |
| IRVMDHGRNHTPFLGHHSFSVRPG | 1.1 |
| IRVMGHGRNHTPFLGHHSFSVRPG | 2.89 |
| IRVMHHGRNHTPFLGHHSFSVRPG | 2.32 |
| IRVMTHGRNHTPFLGHHSFSVRPG | 1.89 |
| IRVMQHGRNHTPFLGHHSFSVRPG | 1.87 |
| IRVMMHGRNHTPFLGHHSFSVRPG | 3.81 |
| IRVMEHGRNHTPFLGHHSFSVRPG | 2.64 |
| IRVMVHGRNHTPFEGHHSFSVRPG | 1.8 |
| IRVMVHGRNHTPFQGHHSFSVRPG | 2.67 |
| IRVMVHGRNHTPFIGHHSFSVRPG | 2.76 |
| IRVMVHGRNHTPFNGHHSFSVRPG | 2.43 |
| IRVMVHGRNHTPFWGHHSFSVRPG | 2.98 |
| IRVMVHGRNHTPFYGHHSFSVRPG | 2.42 |

| Variant | protein stability index |
| --- | --- |
| IRVMVHGRNHTPFHGHHSFSVRPG | 2.23 |
| IRVMVHGRNHTIFLGHHSFSVRPG | 3.72 |
| IRVMVHGRNHTGFLGHHSFSVRPG | 4.32 |
| IRVMVHGRNHTRFLGHHSFSVRPG | 3.86 |
| IRVMVHGRNHTYFLGHHSFSVRPG | 1.97 |
| IRVMVHGRNHTHFLGHHSFSVRPG | 1.48 |
| IDVMVHGRNHTPFLGHHSFSVRPG | 2.76 |
| IPVMVHGRNHTPFLGHHSFSVRPG | 1.76 |
| ITVMVHGRNHTPFLGHHSFSVRPG | 1.51 |
| ILVMVHGRNHTPFLGHHSFSVRPG | 2.6 |
| IAVMVHGRNHTPFLGHHSFSVRPG | 2.26 |
| IQVMVHGRNHTPFLGHHSFSVRPG | 1.58 |
| INVMVHGRNHTPFLGHHSFSVRPG | 2.13 |
| IGVMVHGRNHTPFLGHHSFSVRPG | 2.91 |
| IRVNVHGRNHTPFLGHHSFSVRPG | 2.92 |
| IRVAVHGRNHTPFLGHHSFSVRPG | 1.92 |
| IRVPVHGRNHTPFLGHHSFSVRPG | 3.2 |
| IRVDVHGRNHTPFLGHHSFSVRPG | 1.88 |
| IRVKVHGRNHTPFLGHHSFSVRPG | 1.72 |
| IRVWVHGRNHTPFLGHHSFSVRPG | 2.32 |
| IRVGVHGRNHTPFLGHHSFSVRPG | 1.5 |

Variants of: B2
Test: as above
Details: c terminus: a fixed tail appended

| Variant | protein stability index |
| --- | --- |
| LTLKVLRSSSCGDTELLGQATWPV | 2.21 |
| LTLKVLRSSSCGDTELLGQATYPV | 3.26 |
| LTLKVLRSSSCGDTELLGQATCPV | 2.52 |
| LTLKVLRSSSCGDTELLGQATIPV | 2.36 |
| LTLKVLRSSSCGDTELLGQATAPV | 2.46 |
| LTLKVLRSSSCGDTELLGQATQPV | 1.28 |
| LTLKVLRSSSCGDTELLGQATSPV | 1.61 |
| LTLKVLRSSSCGDTELLGQATPPV | 1.87 |
| LTLKVLRSSSCGDTELLGQATKPV | 1.97 |
| LTLKVLRSSSCGDTELLGQATMPV | 1.56 |
| LTLKVLRSSSCGDTELLGQATTPV | 1.75 |
| LTLKVLRSSSCGDTELLGQATDPV | 2.67 |
| LTLKVLRSSSCGDTELLGQATVPV | 2.75 |
| LTLKVLRSSSCGDTELLGQATGPV | 1.75 |
| LTLKVLRSSSCGDTELLGQATNPV | 2.32 |
| LTLKVLRSSSCGDTELLGQATHPV | 1.54 |
| LTLKVLRSSSCGDTELLGQATRPV | 1.6 |
| LTLKVLRSSSCGDTELLGQATEPV | 1.74 |
| LTLKVLRSSSCGDTELLGQATLPQ | 1.82 |
| LTLKVLRSSSCGDTELLGQATLPA | 2.59 |
| LTLKVLRSSSCGDTELLGQATLPN | 1.92 |
| LTLKVLRSSSCGDTELLGQATLPS | 1.98 |
| LTLKVLRSSSCGDTELLGQATLPG | 2.02 |
| LTLKVLRSSSCGDTELLGQATLPF | 2.7 |
| LTLKVLRSSSCGDTELLGQATLPR | 3.59 |

| Variant | protein stability index |
| --- | --- |
| LTLKVLRSSSCGDTELLGQATLPM | 4.58 |
| LTLKVLRSSSCGDTELLGQATLPT | 1.81 |
| LTLKVLRSSSCGDTELLGQATLPP | 2.41 |
| LTLKVLRSSSCGDTELLGQATLPE | 1.54 |
| LTLKVLRSSSCGDTELLGQATLPH | 1.37 |
| LTLKVLRSSSCGDTELLGQATLPK | 1.85 |
| LTLKVLRSSSCGDTELLGQATLPD | 1.64 |
| LTLKVLRSSSCGDTELLGYATLPV | 3.56 |
| LTLKVLRSSSCGDTELLGPATLPV | 2.06 |
| LTLKVLRSSSCGDTELLGNATLPV | 3.21 |
| LTLKVLRSSSCGDTELLGSATLPV | 2.79 |
| LTLKVLRSSSCGDTELLGVATLPV | 1.43 |
| LTLKVLRSSSCGDTELLGWATLPV | 3.5 |
| LTLKVLRSSSCGDTELLGTATLPV | 1.59 |
| LTLKVLRSSSCGDTELLGQATLAV | 3.27 |
| LTLKVLRSSSCGDTELLGQATLCV | 3.55 |
| LTLKVLRSSSCGDTELLGQATLGV | 4.54 |
| LTLKVLRSSSCGDTELLGQATLFV | 1.57 |
| LTLKVLRSSSCGDTELLGQQTLPV | 2.09 |
| LTLKVLRSSSCGDTELLGQTTLPV | 1.79 |
| LTLKVLRSSSCGDTELLGQPTLPV | 1.96 |
| LTLKVLRSSSCGDTELLGQHTLPV | 1.23 |
| LTLKVLRSSSCGDTELLGQGTLPV | 1.03 |
| LTLKVLRSSSCGDTELLGQNTLPV | 2.49 |
| LTLKVLRSSSCGDTELLGQMTLPV | 2.92 |

| Variant | protein stability index |
| --- | --- |
| LTLKVLRSSSCGDTELLGQRTLPV | 1.44 |
| LTLKVLRSSSCGDTELLGQSTLPV | 1.48 |
| LTLKVLRSSSCGDTELLGQETLPV | 2.1 |
| LTLKVLRSSSCGDTELLGQLTLPV | 2.33 |
| LTLKVLRSSSCGDTELLGQWTLPV | 3.17 |
| LTLKVLRSSSCGDTELLGQKTLPV | 3.04 |
| LTLKVLRSSSCGDTELLGQITLPV | 2.35 |
| LTLKVLRSSSCGDTELLGQDTLPV | 1.45 |
| LTLKVLRSSSCGDTELLGQAYLPV | 3.37 |
| LTLKVLRSSSCGDTELLGQARLPV | 3.3 |
| LTLKVLRSSSCGDTELLGQANLPV | 2.36 |
| LTLKVLRSSSCGDTELLGQAALPV | 1.09 |
| LTLKVLRSSSCGDTELLGQAVLPV | 2.34 |
| LTLKVLRSSSCGDTELLGQAHLPV | 2.21 |
| LTLKVLRSSSCGDTELLGQAMLPV | 2.27 |
| LTLKVLRSSSCGDTELLGQAQLPV | 1.58 |
| LTLKVLRSSSCGDTELLGQAGLPV | 2.94 |
| LTLKVLRSSSCGDTELLGQALLPV | 2.39 |
| LTLKVLRSSSCGDTELLGQASLPV | 2.06 |
| LTLKVLRSSSCGDTELLGQAKLPV | 2.08 |
| LTLKVLRSSSCGDTELLGQAELPV | 1.58 |
| LTLKVLRSSSCGDTELLGQAFLPV | 3.74 |
| LTLKVLRSSSCGDTELLGQACLPV | 1.68 |
| LTLKVLRSSSCGDTELLGQADLPV | 1.57 |
| LTLKVLRSSSCGDTELLGQAPLPV | 2.22 |
